# Columns and labels:
# [1] = molecular target: the alloreactive alleles (2 of 110 HLA types); assay: cell-based or functional assay
# 108 of 110 HLA types = assay: cell-based or functional assay
binder,measurement,setting,value
E7-11-28 MGTM (MG-modified TCR E7-11-28) (TCR) TCR alpha: GQQVMQIPQYQHVQEGEDFTTYCNSSTTLSNIQWYKQRPGGHPVFLIQLVKSGEVKKQKRLTFQFGEAKKNSSLHITATQTTDVGTYFCAGIGSSNTGKLIFGQGTTLQVKPDIQNPDPAVYQLRDSKSSDKSVCLFTDFDSQTNVSQSKDSDVYITDKTVLDMRSMDFKSNSAVAWSNKSDFACANAFNNSIIPEDTFFPSSDVPCDVKLVEKSFETDTNLNFQNLLVIVLRILLLKVAGFNLLMTLRLWS TCR beta: EPEVTQTPSHQVTQMGQEVILRCVPISNHLYFYWYRQILGQKVEFLVSFYNNEISEKSEIFDDQFSVERPDGSNFTLKIRSTKLEDSAMYFCAITGRVSYEQYFGPGTRLTVTEDLNKVFPPEVAVFEPSKAEIAHTQKATLVCLATGFFPDHVELSWWVNGKEVHSGVSTDPQPLKEQPALNDSRYCLSSRLRVSATFWQNPRNHFRCQVQFYGLSENDEWTQDRAKPVTQIVSAEAWGRADCGITSASYHQGVLSATILYEILLGKATLYAVLVSALVLMAMVKRKDFGSGRAKRSGSG,inhibition on target cell growth after 48 h of co-culture (alloreactivity screen) (% target cell inhibition),[1],> 20
same,inhibition on target cell growth after 48 h of co-culture (alloreactivity screen) (% target cell inhibition),108 of 110 HLA types,< 20
